Experiment [1] relates to C81 cells. In words: HRG-induced growth of C81 transfectants. Format: cell-based, human. Conditions: ectopic expression of EBP1, androgen-free media. The protocol:
FIG. 6A-C. EBP1 overexpression inhibits the response to HRG A. EBP1 and vector control transfected cells were plated in complete media at 5×10^3 cells/well for one day. The next day, cells were switched to steroid reduced-media and HRG added at the indicated concentrations. Total cell numbers were determined seven days later by MTT assay. Each point represents mean±S.E. of 6 wells. Data is representative of three experiments. B. AKT activation in response to HRG C81-EBP1 or vector control cells were serum starved overnight and then treated with HRG (20 ng/ml) for the indicated times (mm). Cell lysates were immunoblotted with antibody to phospho-AKT or total AKT as indicated. C. […]
Western Blot Analysis. […] For soft agar growth assays, increasing concentrations of cells (as indicated) were plated in 35 mm Petri dishes in 0.3% agar in complete media and colonies were counted after 10 days of incubation (21). […] Relative cell growth was determined using a Promega Proliferation Reagent (Promega, Madison Wis.) as per manufacturer's instructions with absorbance being read at […] using a Dynex plate reader. […] Luciferase activity was determined using the Promega Dual luciferase assay kit as described by the manufacturer. […] Tumors were measured with calipers. Tumor volumes were calculated by the formula width^2×length/2 […]. Mean tumor volume±S.D. were calculated and plotted against time. […]

The subject of experiment [2] is LNCaP cells. As to the kind of experiment: LNCaP xenografts in SCID mice. Type of experiment: in vivo. On the procedure: In Vivo Studies in SCID Mice: Male SCID mice, 4-6 weeks of age, were purchased from the National Cancer Institute (Frederick, Md.). Animals were housed in a pathogen-free environment under controlled conditions of light and humidity and received food and water ad libitum. LNCaP cells were grown in complete medium and 800 μg/ml of G418 until 80% confluent. Cells were scraped into phosphate-buffered saline (PBS), collected by centrifugation, and suspended in Matrigel™ (10 mg/ml) (Collaborative Research, Waltham, Mass.) at 1×10^7 cells/ml. Each mouse received s.c. injections at one site on each flank with 100 μl of cell suspension. Tumors were measured three times a week with calipers, and tumor volumes were calculated by the formula 0.5236×r1^2×r2 (r1<r2). The animal protocols were approved by the Institutional Animal Care and Use Committee at the University of Maryland.
After sacrifice, tumors were excised and fixed in 10% buffered neutral formalin. Sections of formalin-fixed, paraffin-embedded tissues were cut to 5 μm. Slides were stained with an EPB1 antibody (Upstate) diluted 1:50 using the standard avidin-biotin method (Vector Labs, Burlinghame, Calif.). Peroxidase activity was localized by the diaminobenzidine tetrachloride peroxidase reaction with Harris hematoxylin as a counterstain.

B1: EBP1: ErbB3 binding protein (SEQ ID NO: 2), AR corepressor, here ectopically expressed in cancer cells by stable transfection of an expression plasmid (protein, listed as Homo sapiens)
chain: MSGEDEQQEQTIAEDLVVTKYKMGGDIANRVLRSLVEASSSGVSVLSLCEKGDAMIMEETGKIFKKEKEMKKGIAFPTSISVNNCVCHFSPLKSDQDYILKEGDLVKIDLGVHVDGFIANVAHTFVVDVAQGTQVTGRKADVIKAAHLCAEAALRLVKPGNQNTQVTEAWNKVAHSFNCTPIEGMLSHQLKQHVIDGEKTIIQNPTDQQKKDHEKAEFEVHEVYAVDVLVSSGEGKAKDAGQRTTIYKRDPSKQYGLKMKTSRAFFSEVERRFDAMPFTLRAFEDEKKARMGVVECAKHELLQPFNVLYEKEGEFVAQFKFTVLLMPNGPMRITSGPFEPDLYKSEMEVQDAELKALLQSSASRKTQKKKKKKASKTAENATSGETLEENEAGD
modifications: FLAG tag
Turning to B1, the “ability of C81 cells to grow in response to HRG” value in experiment [1] is on record as “completely abrogated”. Also, the “inoculation sites with tumors on day 20” value in experiment [2] (EBP1-transfected LNCaP s.c. in SCID mice (vector controls 35%)) was 10%. Moreover, in experiment [2] (EBP1-transfected LNCaP s.c. in SCID mice (vector more than 85%), p=0.04), the “sites that developed tumors at the end of the study” value is reported as “less than 40%”. Also, the “average tumor volume at the end of the study” value in experiment [2] (EPB1-transfected LNCaP in SCID mice (vector 1214±168), p=0.0003) was 268±70 mm^3. The tumor growth rate entry in experiment [2] (EPB1 transfectants vs vector, all time points, p=0.0001) is on record as “slower”.

The values are drawn from patent US7838495B2, “Compositions and methods of use of EPB1, and ErbB3 binding protein” (University of Maryland, Baltimore, priority 2007, dated 2010).
